Measured values as given in patent CN113512111A (BEIJING MABWORKS BIOTECH CO LTD, dated 2021).

B1: 抗体MIL77-1 (anti-Ebola virus glycoprotein monoclonal antibody, afucosylated, made in CHOK1-AF cells) (antibody)
heavy: not shown
light: DIQMTQSPASLSVSVGETVSITCRASENIYSSLAWYQQKQGKSPQLLVYSATILADGVPSRFSGSGSGTQYSLKINSLQSEDFGTYYCQHFWGTPYTFGGGTKLEIKRTVAAPSVFIFPPSDEQLKSGTASVVCLLNNFYPREAKVQWKVDNALQSGNSQESVTEQDSKDSTYSLSSTLTLSKADYEKHKVYACEVTHQGLSSPVTKSFNRGEC
B2: 抗体MIL77-2 (anti-Ebola virus glycoprotein monoclonal antibody, afucosylated, made in CHOK1-AF cells) (antibody)
heavy: not shown
light: DIQMTQSPASLSASVGETVTITCRASENIYSYLAWYQQKQGKSPQLLVYNAKTLIEGVPSRFSGSGSGTQFSLKINSLQPEDFGSYFCQHHFGTPFTFGSGTELEIKRTVAAPSVFIFPPSDEQLKSGTASVVCLLNNFYPREAKVQWKVDNALQSGNSQESVTEQDSKDSTYSLSSTLTLSKADYEKHKVYACEVTHQGLSSPVTKSFNRGEC

Assays:
C1q蛋白 = C1q蛋白 (UniProt P02745 23-245; P02746 28-253; P02747 29-245)
[1] = target: T1, 埃博拉病毒表面抗原GP蛋白 (soluble GP used as the analyte in BIAcore) (埃博拉病毒 (Ebola virus), UniProt Q05320 33-650)
T1 sequence: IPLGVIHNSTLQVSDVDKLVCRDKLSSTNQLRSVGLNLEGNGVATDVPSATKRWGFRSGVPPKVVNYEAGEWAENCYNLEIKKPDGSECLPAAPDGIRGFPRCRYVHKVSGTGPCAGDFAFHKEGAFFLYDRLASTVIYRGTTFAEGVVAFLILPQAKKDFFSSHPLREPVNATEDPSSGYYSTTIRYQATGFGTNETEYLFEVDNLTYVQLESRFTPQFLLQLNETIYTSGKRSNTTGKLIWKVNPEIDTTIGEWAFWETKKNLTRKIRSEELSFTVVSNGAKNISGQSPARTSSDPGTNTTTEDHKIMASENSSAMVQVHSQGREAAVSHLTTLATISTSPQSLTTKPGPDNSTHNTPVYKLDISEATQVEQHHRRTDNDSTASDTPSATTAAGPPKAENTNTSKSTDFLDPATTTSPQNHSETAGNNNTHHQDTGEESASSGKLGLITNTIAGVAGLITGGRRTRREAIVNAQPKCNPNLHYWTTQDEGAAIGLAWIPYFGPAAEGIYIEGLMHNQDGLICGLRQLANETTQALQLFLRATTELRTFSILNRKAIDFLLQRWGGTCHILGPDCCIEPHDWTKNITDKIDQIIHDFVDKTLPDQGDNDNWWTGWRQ

FcγRIIIa(158V) = FcγRIIIa(158V) (UniProt P08637 17-208)
[2] = target: T2, 埃博拉GP蛋白 on 埃博拉假病毒(扎伊尔型) (HIV-backbone luciferase pseudovirus) (埃博拉病毒(扎伊尔型) (Zaire ebolavirus), UniProt Q05320 33-676); experiment: cell-based or functional assay
T2 sequence: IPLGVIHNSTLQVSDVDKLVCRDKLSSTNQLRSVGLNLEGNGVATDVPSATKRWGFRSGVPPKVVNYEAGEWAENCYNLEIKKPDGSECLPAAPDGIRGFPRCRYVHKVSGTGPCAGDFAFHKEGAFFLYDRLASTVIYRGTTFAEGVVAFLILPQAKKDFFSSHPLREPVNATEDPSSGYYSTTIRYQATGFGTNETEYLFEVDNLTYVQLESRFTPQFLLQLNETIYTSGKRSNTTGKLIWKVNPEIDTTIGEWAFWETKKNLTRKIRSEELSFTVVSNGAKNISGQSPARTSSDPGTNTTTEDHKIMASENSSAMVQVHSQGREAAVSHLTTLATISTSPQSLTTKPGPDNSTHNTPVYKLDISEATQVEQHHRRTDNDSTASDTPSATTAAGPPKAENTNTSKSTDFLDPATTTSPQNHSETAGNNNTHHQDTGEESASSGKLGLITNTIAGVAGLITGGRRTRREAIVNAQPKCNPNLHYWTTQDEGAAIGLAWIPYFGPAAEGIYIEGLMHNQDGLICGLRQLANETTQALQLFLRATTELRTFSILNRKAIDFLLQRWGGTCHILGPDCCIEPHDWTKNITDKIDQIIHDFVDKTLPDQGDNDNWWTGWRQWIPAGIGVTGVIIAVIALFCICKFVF

Sequence of C1q蛋白 (P02745 23-245 limits assumed, chain 1 of 3): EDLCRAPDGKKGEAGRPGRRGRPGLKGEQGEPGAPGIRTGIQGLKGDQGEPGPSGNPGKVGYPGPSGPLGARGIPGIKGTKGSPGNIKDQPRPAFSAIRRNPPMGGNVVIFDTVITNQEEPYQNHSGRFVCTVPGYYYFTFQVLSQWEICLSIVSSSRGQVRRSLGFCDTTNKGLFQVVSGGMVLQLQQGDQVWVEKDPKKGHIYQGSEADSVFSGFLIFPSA
Sequence of C1q蛋白 (P02746 28-253 limits assumed, chain 2 of 3): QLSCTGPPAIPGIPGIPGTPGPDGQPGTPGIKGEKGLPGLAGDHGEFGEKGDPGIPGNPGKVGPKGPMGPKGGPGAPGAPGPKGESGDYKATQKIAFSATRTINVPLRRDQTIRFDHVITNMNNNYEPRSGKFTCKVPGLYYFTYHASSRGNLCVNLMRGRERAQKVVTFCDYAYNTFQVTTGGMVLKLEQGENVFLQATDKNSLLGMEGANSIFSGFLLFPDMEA
Sequence of C1q蛋白 (P02747 29-245 limits assumed, chain 3 of 3): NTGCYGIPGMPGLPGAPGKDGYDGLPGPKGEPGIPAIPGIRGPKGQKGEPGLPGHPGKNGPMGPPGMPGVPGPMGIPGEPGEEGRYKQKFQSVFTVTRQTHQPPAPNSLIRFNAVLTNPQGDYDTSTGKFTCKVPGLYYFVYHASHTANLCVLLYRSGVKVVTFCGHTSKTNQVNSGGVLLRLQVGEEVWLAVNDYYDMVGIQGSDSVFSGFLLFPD
Sequence of FcγRIIIa(158V) (P08637 17-208 F176V limits assumed): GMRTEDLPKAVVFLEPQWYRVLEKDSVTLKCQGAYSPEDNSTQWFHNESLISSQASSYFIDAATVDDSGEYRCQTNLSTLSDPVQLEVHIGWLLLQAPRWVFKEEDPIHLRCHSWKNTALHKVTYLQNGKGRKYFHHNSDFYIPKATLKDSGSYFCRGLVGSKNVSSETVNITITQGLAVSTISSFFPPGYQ

| Binder | EC50 (C1q蛋白) [µg/mL] | Kd [1] [nM] | EC50 (FcγRIIIa(158V)) [µg/mL] | 体外假病毒感染细胞中和活性 半数抑制浓度(IC50), HEK293细胞体系, batch M20141202 [2] [µg/mL] | 体外假病毒感染细胞中和活性 半数抑制浓度(IC50), Huh7细胞体系, luciferase reporter [2] [µg/mL] | 体外假病毒感染细胞中和活性 半数抑制浓度(IC50), HEK293细胞体系, batch M20141203 [2] [µg/mL] | 体外假病毒感染细胞中和活性 半数抑制浓度(IC50), HEK293细胞体系, batch M20150101 [2] [µg/mL] |
| --- | --- | --- | --- | --- | --- | --- | --- |
| B1 | 0.818 to 0.96 | 50.6 to 53.8 | 0.062 to 0.064 | 4.59 | 0.799 |  |  |
| B2 | 0.772 to 0.968 | 31.9 to 36.2 | 0.054 to 0.073 | 0.058 | 0.359 | 0.023 | 0.017 |
